Source: FireProtDB (doi:10.1021/ja046667t)
Values joined by “and” are separate entries in the source; they are usually repeats but may differ in a detail not shown here. Identical values can stand only once.

B1: Cytochrome c-551 wild type, P00099 (protein)
chain: MKPYALLSLLATGTLLAQGAWAEDPEVLFKNKGCVACHAIDTKMVGPAYKDVAAKFAGQAGAEAELAQRIKNGSQGVWGPIPMPPNAVSDDEAQTLAKWVLSQK
B2: Cytochrome c-552 wild type, P15452 (protein)
chain: MKKFLLVAVVGLAGITFANEQLAKQKGCMACHDLKAKKVGPAYADVAKKYAGRKDAVDYLAGKIKKGGSGVWGSVPMPPQNVTDAEAKQLAQWILSIK

Conditions: pH 7, Thermal, CD, Phosphate 50 mM, whole UniProt chain shown

Protein | unfolding free energy (Pseudomonas aeruginosa (strain ATCC 15692 / DSM 22644 / CIP 104116 / JCM 14847 / LMG 12228 / 1C / PRS 101 / PAO1), 25 °C) | unfolding enthalpy (van 't Hoff) (Pseudomonas aeruginosa (strain ATCC 15692 / DSM 22644 / CIP 104116 / JCM 14847 / LMG 12228 / 1C / PRS 101 / PAO1)) | unfolding enthalpy (van 't Hoff) (Hydrogenobacter thermophilus (strain DSM 6534 / IAM 12695 / TK-6), 25 °C) | unfolding enthalpy (van 't Hoff) (Hydrogenobacter thermophilus (strain DSM 6534 / IAM 12695 / TK-6))
B1 | 32.2 kJ/mol and 81.4 kJ/mol | 295 kJ/mol and 664 kJ/mol |  | 
B2 |  |  | 236 kJ/mol and 269 kJ/mol | 456 kJ/mol and 584 kJ/mol
